Laboratory results from the DeepSol protein solubility set.

Assay: soluble on expression in E. coli; label from the status in PepcDB or PDB records

| Sequence | soluble on expression in E. coli |
| --- | --- |
| ELKAKILHIPGDELINHNNQILEEYDHSQNTLIVGPNHVNSNIIHALTASEDTLFYKHNGIMPKALLRAMLQDITNSNQSSGGSTITQQLVKNQVLSNKKTYSRKANEIILATRVENLLSKDEIIYTYLNIVPFGHDYNGANITGISSASYSLFGIPAKDLNIAQSAYLIGLLQSPYGY | not soluble |
| ANGFHYTVGFNLSDYQSEVTKFDNESKELGNWYVGQKQGEIWGYETYGLFQSEQEIAGAANQDKVSGGIKLMPGDIRFVDRNNDGVIDWGDNTVDNPGDKKIIGNSTPRYHYGINLGADWKGFDLGIFFQGVGKRDLYLPGTSFRSHYGSEWQVPSAYNNDYWTEENTGAYFPRARFNGGSAINQAQTRYMVDASYCRLKSLSIGYTLPKVLTQKASIEKIRIYFTGENLFTISDTPDGLDPELDNPYTYPMQRSLSVGLSLTF | not soluble |
| RTEDLPKAVVFLEPQWYSVLEKDSVTLKCQGAYSPEDNSTQWFHNESLISSQASSYFIDAATVNDSGEYRCQTNLSTLSDPVQLEVHIGWLLLQAPRWVFKEEDPIHLRCHSWKNTALHKVTYLQNGKDRKYFHHNSDFHIPKATLKDSGSYFCRGLVGSKNVSSETVNITITQGL | soluble |
| MSLNKEPDPPLAESLRPQHIDEVIGQSHLLGEGKPLRLCFMGSKLHSMILWGPPGVGKTTIARLTAQAFDCEWIALSAVFSGVKDIRAAVEKAQEYLIHDKQTILFIDEIHRFNKAQQDALLPYTESGLITFIGATTENPSFEVNSALLSRAQVYVLKPLSEQELKLLFLRAHQRALSSLQFTEEAVDFLISCADGDARRLLNLLEQTKTACLTIKTAVVDVELLHNVIVQNSRRFDKGGEAFYDQISALHKSVRGSNPDAALYWLCRMLDGGVDPYYLARRIIRMSWEDIGLADPKAIQIANDAAATYERLGSPEGELALAQAVIYLSVAAKSNAGYVAFNQAMEFIKRDKSREVPIHLRNAPTQLMKKLGYGHEYRYAHDEPHGYAAGECYLPEGMPEVNWYNPVQRGLETKIAEKLAFLRQLDKDVKKEGHHHHHH | soluble |
| NTMRSFILRARSAPTDSQRLLDEIGGKCHTEILAHCMMNSLFTAQSHREDVVIHLVLESTRDYSRTITVEANEISDVGGFHEAALIALLVKALDASVGMGKEQTRVVQPGLTVRTISFEALLGELAEHHSLYMMDKKGDSIRDIKIGPNPCFILTDHIPMPKKSGNSMKRLGVEKISLGPKMLFASQCVTLIHNEIDHQEA | not soluble |
| MSLDLRLEELAILGVKLPHDFSPEVQGPLFSSQGLNNISDIAHLSNNENLSYLMTATIENNKVKLDHFVQFLPMIMKFGNSEQRFQLQPKKDTNAPKPTTNKSRGYAKPKRGFGFVDLDDAPSSQPEPSDAEITRNNFDLEQTYWSKNFVNITRVGSRTILEPAIGASLTTYNSGQCYILRLPRKLLISTNTEWPDFISRKIELDGKPLPIPSDNLTEISSREDIISCSYVNDKIDSNWGAVVSLSKSSSENLKVVGIEKQSMVLRESTPMNEGHHHHHH | soluble |
| MGSDKIHHHHHHMNLTIRQFRAFLAVADLRSFTAASKYLCITQGAVSGLINEMESQMEVSLFDRTSRVVKLSPDGEKFLPAAMRVVEEFQRAENYARDLKEIKKSLVRVVGAPLIACAFLPQIIHAFKRQHPHTHVQLIDKPMSQLQKSIMLGEADFGIGPERPLEPEIDKQTLFTTEIALYCHPDYRLHKKTVRWEEIQSEELIAVGNESIPMISATAGVRIKPKMTVEHMATAMSLAAQCEGVVIAGTFSRHYAKSYQLATCSLTPPLRRNMNLYFHAWRAQTPATQRFRDFLFSYVDEHHDAPANQR | not soluble |
| MSLNYSHAFHAGNHADVLKHIVLLALLDGLVRKETPFFVLDSHAGRGRYLLSAGESRNTREAESGVMRLIARPQRLEVIKRYVDVVQADNVSQTRAASTPMHISRYPGSSLLAAQVCRAQDRMVFCELHPKEAAALNALFVHDPRVRVHAGDGYAAVRAFLPPKVGTQRIGRGLVFIDPPYEAQDAEYPLVLGALRETLTRWPQAICAVWYPIKQRRRLQPFFRKAVGLPVRSVLIAELLVRLDDSPLRLNGSGMLLLNVPWQFDQLLAPALPVLKTQLGESGARTRLEWLKVPQEGHHHHHH | not soluble |
| MGFHLRNSLALPPDTPAVKVQSAVQYSELAKLLRRGLKASGATLADEDAKTGFAQVQVLSERWGDLPIAIDSQGRAQEYSLRYAAIFTVTTANGAVLVPQQVIELSRDYVSPPVDATGTATEREILADELRKDMSASILRRIDSVVRARLKHGESLESTPTAPLPPAPVQPTTLPESSVPAALPPAPTSGNLEHHHHHH | not soluble |
| MGSDKIHHHHHHMNKTITIDPVTRIEGHARVFIDLDDGGALKAAGLVVNELRGFEKILTGMDADRMPLVTARICGVCPTAHHLAATNALDNAAGVEPPTAAKLLRELMYMGHLIHSHCLSLFVLQGPDLVLGLDADPAIRNVVGVVQAVPDIARKALQCRSIGQKINELVGGRGTHPVTSVAGGIAFVLDADRERQLNAWIQEAHGLVLELAPVVKQLLMKMLDANPAMLEQWVIPAWSVGTVKGDGTIALVNGEIRAIDESGARKAQFPTAGYDTHLSEAAVDFSYMKQVSFVEGETRHDYRVGPLARLNISDRYGTPLADREREEFIRTVGRPCHANALQPWARLIELLYCTERAQEIMASPEIHGETRVPVKFSGGRGVGHVEAPRGTLIHDYEIDENGIVRAANLIVATQQNYALINTMIAQAATSHVINRPDDQALLNAVEFGIRCYDPCLSCATHALGAMPLEIVVNRADRPHLIRRNC | not soluble |
| MGSDKIHHHHHHMIPTIRLHSQQLINPVFNNPKDLVSWMGGIQAQDYTMSKWAIGIRLKAGNLQTVNEALAKGDILRIHVMRPTWHYVAAEDIRWMLKLSSRRIITANDSFAKSRGQDISVDIYNKANRLLEKALAGHNHLTKQEIDNIFKEGGLETNERLSNRFLIHAEAEGLICSGADKNNKITFALLDERVPPIQELHKEEALAILARKYFRSHSPASLKDFVWWSGLSVTEARQGIAAIEQELLTDRFLAQKLYVHQSYKEEKTTDILHILPSYDEYLISYKDRTDVLNKEYQHKAFNSFGIFRPVILYNGQIVGNWNKVIQKQTTHIEMNWFKKNTKIKRELLSLAERKYLTFFSEL | not soluble |
| MSLKFMSRFTFKQFHINQNSCAMKVGTDGILLGAWADVKHCKNILDMGCGTGLLALMLAQRTEENCQIQAVELDPIAAKQAQENINNSVWKNRIQLTQVDIQHFLQTTEQTFDLIVANPPYFEQGIACKNEERELARYTKQSHLNWLEWAATRLSENGRISFVLPYEAGKTLTKSTALFCIKQTNVITKIGKTPQRMLLTFAKQPEVLMQDQLVIYDADNQYTEAFIELTKDFYLKEGHHHHHH | soluble |
| MKILLRNALITNEGKTFPGSVMIDGAFISRIIEGELPADDNLSADEVIECSGLRLFPGCIDDQVHFREPGLTHKATIASESRAAVAGGVTSFMDMPNTNPPTTMWERLLEKRQIGADTAWANYGFFFGGTNDNIDEIKRVDKHLVPGLKLFLGSSTGNMLVDNKETLEKIFGECDLLIATHCEKEEIIRANKEHYKAKYGNDLDIHFHPLIRSEEACYRSSAEAVELAERMNARLHILHLSTEKELSLFRNDIPTAQKRITSEVCVHHLWFSDTDYGRLGNRIKWNPAIKKESDREALRAAVRNGRIDIIATDHAPHLLREKEGSCLQAASGGPLVQHSLLALLELCNQGIFSIEEIVSKTAHIPATLFAIEKRGYIRPGYYADLVLVDPSSPHTVSADNILSLCGWSPFEGFTFSHSVAYTFVNGCLAYAKGRLAESRPTVHPLFFNR | soluble |
| MTVPYETAKAALLEAAMMHVPFDGWSETTFQAAARDAELSPSVARAICPRGAVDLAIAFHKAGDAAMLDRLAETDLSAMKFRDKVTAAVRIRLEVIEDKEAVRRGTTLFALPMYAADGAKLIWGTCDAIWTTLGDTSDDVNWYTKRATLSGVYSSTVLYWLGDDSPDHMATWGFLDRRIENVMAIEQVKAKVRQSPTLSRLMTGPNWLLSQIKAPRITPKTDLEHHHHHH | soluble |
